The values that follow are results of earlier work, collected in article PMC6953019.

As usually defined, the pKd is −log10 of the Kd, conventionally taken in molar units.

pKd: −log10 of the molar value.

This data set addresses TβRII (Homo sapiens) (UniProt P37173). Nature of the data set: SPR. On the technique in general: SPR reads the build-up and loss of mass on a sensor chip optically.

Chain of TβRII (Homo sapiens) (P37173 23-166): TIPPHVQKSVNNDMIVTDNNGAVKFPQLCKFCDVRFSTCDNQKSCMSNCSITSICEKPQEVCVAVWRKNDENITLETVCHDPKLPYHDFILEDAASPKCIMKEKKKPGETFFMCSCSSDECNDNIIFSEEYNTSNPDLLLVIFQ
Chain of TGFβ2 (P61812 303-414): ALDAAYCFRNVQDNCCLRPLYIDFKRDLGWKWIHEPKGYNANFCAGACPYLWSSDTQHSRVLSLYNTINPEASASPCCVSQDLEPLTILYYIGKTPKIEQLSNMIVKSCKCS

As to TGFβ2 (from UniProt P61812), the pKd is 8.30.
